From patent US20130243722A1 (NEUMEDICINES, published 2013)

Biological target: human IL-12 receptor on human CD14- PBMC (human, UniProt Q99665 24-862)
Test: cell-based or functional assay

Chain of human IL-12 receptor on human CD14- PBMC (Q99665 24-862): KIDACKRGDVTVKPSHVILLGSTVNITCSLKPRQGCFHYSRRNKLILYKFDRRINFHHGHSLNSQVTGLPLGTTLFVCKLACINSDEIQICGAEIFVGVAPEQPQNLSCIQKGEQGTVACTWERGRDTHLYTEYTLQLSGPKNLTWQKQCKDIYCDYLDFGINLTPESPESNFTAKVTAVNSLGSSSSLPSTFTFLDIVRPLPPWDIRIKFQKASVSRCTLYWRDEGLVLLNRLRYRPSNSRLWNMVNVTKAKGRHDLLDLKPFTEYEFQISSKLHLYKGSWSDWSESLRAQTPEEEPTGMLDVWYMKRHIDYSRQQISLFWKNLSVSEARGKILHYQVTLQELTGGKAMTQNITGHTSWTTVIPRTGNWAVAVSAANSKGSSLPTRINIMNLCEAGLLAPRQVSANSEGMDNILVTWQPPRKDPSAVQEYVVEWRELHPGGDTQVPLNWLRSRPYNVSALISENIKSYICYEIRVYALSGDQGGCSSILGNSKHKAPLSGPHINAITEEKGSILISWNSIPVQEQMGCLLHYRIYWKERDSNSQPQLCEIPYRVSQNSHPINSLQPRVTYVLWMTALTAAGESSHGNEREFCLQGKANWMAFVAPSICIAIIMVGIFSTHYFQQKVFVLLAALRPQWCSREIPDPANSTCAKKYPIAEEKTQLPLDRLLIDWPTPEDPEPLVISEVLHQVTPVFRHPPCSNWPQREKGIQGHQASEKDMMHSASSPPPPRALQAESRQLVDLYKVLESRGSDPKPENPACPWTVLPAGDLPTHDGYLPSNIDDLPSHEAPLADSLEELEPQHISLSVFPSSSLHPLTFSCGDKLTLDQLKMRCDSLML

B1: recombinant human IL-12 (ligand)
chain 1: RNLPVATPDPGMFPCLHHSQNLLRAVSNMLQKARQTLEFYPCTSEEIDHEDITKDKTSTVEACLPLELTKNESCLNSRETSFITNGSCLASRKTSFMMALCLSSIYEDLKMYQVEFKTMNAKLLMDPKRQIFLDQNMLAVIDELMQALNFNSETVPQKSSLEEPDFYKTKIKLCILLHAFRIRAVTIDRVMSYLNAS
chain 2: IWELKKDVYVVELDWYPDAPGEMVVLTCDTPEEDGITWTLDQSSEVLGSGKTLTIQVKEFGDAGQYTCHKGGEVLSHSLLLLHKKEDGIWSTDILKDQKEPKNKTFLRCEAKNYSGRFTCWWLTTISTDLTFSVKSSRGSSDPQGVTCGAATLSAERVRGDNKEYEYSVECQEDSACPAAEESLPIEVMVDAVHKLKYENYTSSFFIRDIIKPDPPKNLQLKPLKNSRQVEVSWEYPDTWSTPHSYFSLTFCVQVQGKSKREKKDRVFTDKTSATVICRKNASISVRAQDRYYSSSWSEWASVPCS
In the case of B1, the “EC50 for stimulating IFN-γ secretion from CD14- PBMC (ELISA, 16 hours)” value is reported as 2.51 pM.
